Like-named read-outs stand apart in the source and are kept apart here.
How the values were obtained:
[1] = target: T1, human Siglec15-Fc protein (human); assay: competitive ELISA: biotin-labeled human Siglec15-Fc in solution, competitor coated benchmark
T1 construct: In house made; also called recombinant human Siglec15 protein with human IgG1 Fc at the C-terminus
Procedure: (§1) The abilities of the anti-Siglec15 antibodies of the disclosure to block benchmark-human Siglec15 binding were measured in a competitive ELISA assay. Briefly, the benchmark was coated on 96-well micro plates at 2 μg/mL in PBS, 100 μl per well, and incubated for 2 hours at 37° C. Then plates were washed once with wash buffer, and blocked with 5% w/v non-fatty milk in PBST overnight at 4° C. The next day, the anti-Siglec15 antibodies of the disclosure or controls were diluted with biotin labeled human Siglec15-Fc protein (prepared in-house with SEQ ID NO: 19, 37 ng/ml in PBST with 2.5% w/v non-fatty milk), starting at 80 nM with a 4-fold serial dilution, and incubated at room temperature for 40 minutes. After plate washing 4 times, the antibody/Siglec15-Fc mixtures were added to benchmark coated plates, 100 μl per well. After incubation at 37° C. for 40 minutes, plates were washed 4 times again using wash buffer. Then the plates were added and incubated with 100 μl/well streptavidin conjugated HRP for 40 minutes at 37° C. […] Finally, TMB was added and the reaction was stopped using 1M H₂SO₄, and the absorbance of each well was read on a microplate reader using dual wavelength mode with 450 nm for TMB and 630 nm as the reference wavelength, then the OD (450-630) values were plotted against antibody concentration. Data was analyzed using Graphpad Prism software and IC₅₀ values were reported.

[2] = target: T2, mouse Siglec15-his protein (mouse); assay: indirect ELISA on coated mouse Siglec15-his
T2 construct: In house made
T2 chain: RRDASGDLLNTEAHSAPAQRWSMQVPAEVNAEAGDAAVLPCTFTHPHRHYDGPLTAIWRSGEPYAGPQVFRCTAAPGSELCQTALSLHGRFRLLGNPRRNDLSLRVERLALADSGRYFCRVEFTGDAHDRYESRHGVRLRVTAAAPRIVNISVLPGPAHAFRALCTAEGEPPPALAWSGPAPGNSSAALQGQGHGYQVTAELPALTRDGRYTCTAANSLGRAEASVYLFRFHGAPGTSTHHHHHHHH
Procedure: The anti-Siglec15 antibodies' cross-reactions to cynomolgus or mouse Siglec15 proteins were measured. Briefly, 96-well micro plates were coated with 100 μl of 2 μg/ml cynomolgus Siglec15-his protein (in house made with SEQ ID NO: 21), or 2 μg/ml mouse Siglec15-his protein (in house made with SEQ ID NO: 22) in carbonate/bicarbonate buffer (pH 9.6) for 2 hours at 37° C. ELISA plates were washed once with wash buffer (PBS+0.05% v/v Tween-20, PBST) and then blocked with 200 μl/well blocking buffer (5% w/v non-fatty milk in PBST) overnight at 4° C. Plates were washed 4 times and incubated with 100 μl serially diluted anti-Siglec15 antibodies of the disclosure or controls (starting at 66.7 nM, 5-fold serial dilution in PBST with 2.5% w/v non-fatty milk) for 40 minutes at 37° C. […] The reaction was stopped 4 minutes later at room temperature with 50 μl 1M H₂SO₄, and the absorbance of each well was read on a microplate reader using dual wavelength mode with 450 nm for TMB and 630 nm as the reference wavelength, then the OD (450-630) values were plotted against antibody concentration. Data was analyzed using Graphpad Prism software and EC₅₀ values were reported.

[3] = target: T3, recombinant human Siglec15-his protein (human, UniProt Q6ZMC9 20-263); assay: capture ELISA, captured antibody, biotin-labeled human Siglec15-his in solution
T3 construct: In house made; Biotin-labeled in the capture ELISA
T3 sequence: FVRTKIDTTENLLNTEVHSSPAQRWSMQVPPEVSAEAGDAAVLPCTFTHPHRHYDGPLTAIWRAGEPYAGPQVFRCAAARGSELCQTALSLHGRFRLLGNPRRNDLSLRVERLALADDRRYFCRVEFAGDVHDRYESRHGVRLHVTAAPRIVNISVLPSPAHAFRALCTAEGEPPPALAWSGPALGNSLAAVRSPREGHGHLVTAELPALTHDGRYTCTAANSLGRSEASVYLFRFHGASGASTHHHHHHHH
Procedure: Briefly, 96-well plates were coated with 100 μl of 2 μg/ml AffiniPure Goat Anti-Human IgG F(ab′)₂ fragment specific (Jackson Immuno Research, Cat #109-005-097) in PBS for 2 hours at 37° C. Plates were washed once with wash buffer (PBS+0.05% v/v Tween-20, PBST) and then blocked with 200 μl blocking buffer (5% w/v non-fatty milk in PBST) overnight at 4° C. Plates were washed 4 times and respectively incubated with 100 μl serially diluted anti-Siglec15 antibodies of the disclosure, the benchmark and hIgG (human immunoglobulin (pH4) for intravenous injection, Hualan Biological Engineering Inc.), 5-fold dilution in 2.5% w/v non-fatty milk in PBST starting at 66.7 nM, for 40 minutes at 37° C., and then washed 4 times again. […] The reaction was stopped in 4 minutes at room temperature with 50 μl/well 1M H₂SO₄, and the absorbance of each well was read on a microplate reader using dual wavelength mode with 450 nm for TMB and 630 nm as the reference wavelength, then the OD (450-630) values were plotted against antibody concentration. Data was analyzed using Graphpad Prism software and EC₅₀ values were reported.

[4] = target: T1, human Siglec15-Fc protein; assay: competitive ELISA: biotin-labeled human Siglec15-Fc in solution, competitor coated benchmark; remark: listed apart in the source
Procedure: as §1

Binder | IC50 [1] | EC50 [2] | EC50 [3] | IC50 [4]
A2A5C7E8 (antibody, V domains shown, Fully human antibody from transgenic mouse hybridoma; also called A2A5C7E8-1) VH: EVQLVQSGAEVKKPGESLRISCKGSGYSFTTYWISWVRQMPGKGLEWMGLIDPSDSYTNYSPSFQGHVTISTDKSISTAYLQWSSLKASDTAMYYCARGGYYGSEEDYWGQGTLVTVSS VL: EIVLTQSPGTLSLSPGERATLSCRASQSVSSSRLAWFQQKSGQAPRLLIFDASSRATGIPDRFSGSGSGTDFTLTISRLEPEDFAVYYCQQYGSSPRTFGQGTKVEFK | 0.0836 nM |  |  | 
anti-Siglec15 benchmark (ch5G12) (antibody, human IgG1, kappa, V domains shown, ch5G12 (US 20190202912A1); also called BM; Siglec15-ch5G9) VH: QVQLQQPGAELVKPGASVKMSCKASGYTFTSYWITWVIQRPGQGLEWIGDIYCGSDTMHYNEKFKNKATLTVDTSSSTAYMQLSSLTSEDSAVYYCARWWDYGSSYDYFDYWGQGTTLTVSS VL: DIKMTQSPSSMYASLGERVTITCKASQDINSYLSWFQQKPGKSPKTLIYRANRLVDGVPSRFSGSGSGQDYSLTISSLEYEDMGIYYCLQYDEFPYTFGGGTKLEIKR | 0.253 nM | 0.419 nM | 2.35 nM | 0.338 nM

— patent US20230106715A1 (BIOSION, published 2023)
